Laboratory results: publication PMC11197462 (Structure (London, England : 1993), 2023)

Legend:
Fab favezelimab(mut) = assay: SEC
[1] = target: human LAG3, four Ig-like extracellular domains (D1-D4; residues 1-449) (human, UniProt P18627); assay: SEC
Sequence of human LAG3, four Ig-like extracellular domains (D1-D4; residues 1-449) (P18627 23-449): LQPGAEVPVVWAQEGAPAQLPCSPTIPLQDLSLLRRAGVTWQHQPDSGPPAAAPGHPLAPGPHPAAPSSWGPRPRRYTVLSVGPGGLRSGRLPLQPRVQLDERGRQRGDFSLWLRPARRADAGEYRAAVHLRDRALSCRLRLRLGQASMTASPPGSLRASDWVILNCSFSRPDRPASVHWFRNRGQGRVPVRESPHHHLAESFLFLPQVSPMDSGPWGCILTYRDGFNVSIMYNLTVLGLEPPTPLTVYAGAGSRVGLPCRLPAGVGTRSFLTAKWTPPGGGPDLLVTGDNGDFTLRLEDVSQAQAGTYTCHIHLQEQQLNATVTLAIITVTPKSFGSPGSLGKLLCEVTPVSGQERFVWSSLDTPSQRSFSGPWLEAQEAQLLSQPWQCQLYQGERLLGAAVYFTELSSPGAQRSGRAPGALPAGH

- percent of the protein in the dimer peak (Fab favezelimab(mut)): 85%
- stoichiometry N (Fab favezelimab(mut)): 2
- stoichiometry N [1]: 2
B1: Fab favezelimab(mut) (Fab, V domains shown)
VH: EVLLLQSGPELVKPGTSVKIPCKASGYTFTDYNVDWVKQRHGKGLEWIGDINPNNGGTIYSQKFKGKATLTVDKSSSTAFMELRSLTSEDTAVYFCARNYRWFGAMDHWGQGTSVTVSS
VL: DIVLTQSPASLAVSPGQRATISCKASQSLDYEGDSDMNWYQQKPGQPPRLLISGASNLESGIPARFSGSGSGTDFTVNIHPVEEEDAATYYCQQSTEDPRTFGGGTKLEIK
